Experimental data taken from a protein production outcome set (Wang et al. 2014).

Assay: label from the status in PepcDB records

For “MMIAAAIFTTCVDGNKFFYHREIKVLRHLKRFNKPALKSIKSEDGDVIDCVPITNQPAFDHHLLKNHTIQMRPSFYPVSDSTYTKREAKAVTQVWHKAGECPKNTVPIRRTKKEDLLRPKSIRSFGRKSHQSIPRTTTFDPTLGHQYALMGVRNGKFYGTEVAINLWKPYVQIPKEFSLAQTWVVSGNGSSLNTIEAGWQVYPELYDDNNPRFFVYWTRDGYRKTGCYNLLCSGFVQTSNRYTVGGSITTMSRYRGTQYDLSVLIWKDQKTGNWWLRVNEKDVIGYWPGSLFNSLGREATRVEWGGEIINSKTGGRHTTTDMGSGHFADEGFKKASYFRNLKIVDGTNTLREPQGLYFFADKHNCYNVKTGNGGTSWGAHFFYGGPGRNVKCP”, the protein production was “not failed”.

With “MPNQSNESRPFHKDLESILYAHVPLPMFTMDEEGALLNMNEGAMETLRVDWEQNQRSSVFQLFESECRESLYLALATVNKISQVEKVELIKRNGETFETFCLSLQLLPDKQVIAFIAPLIDKGMDPLTGVPIRQEVPRLMERTFQENQAETYVLFLINLDRFKLVNDSLGEGYGDQVLQTLVRRLLWQLPNQQWIARVSGDEFIACAAIKGELPKKETLATYISSIIQQPFQVDEVQFTMTASIGAAVYPMDGKSVEMIWNSLERALRHAKARGGNCVSWFCQELKDEWIHPFRLENDLRRAVENQELELYFQPIFETTTGEHCGEEVLVRWNHPALGVLGPNFFIPVAEEIGLIGVVGKWVLDEACKQKALLIEKEASSVPMSVNLSLRQFLQPDIVDMILDSLNKYGLDPSLLEVEVTERITIDMNRAMKVLQKLRAQGIRVSLDDFGTGYSSLQYISQLPIQKLKIDKSFIAEIGVNSQVEAIISMIIHLGHELDLTVVAEGVETEKQLSFLKEKKCDTVQGYYHAKPLTFSEFKKYLLS” the protein production was “failed”.

In the case of “MSLITNAKLYPPRHPRAVHLAHHLAAIAPGVLVTAAIAAAAVGLRAIPGMPGISPMLLAILIGIVAHNGIGTPSWAVPGVKFSLRRVLRFAIILLGLQLTTAQLIEVGGEGLAIIAATLLATFCFTVWFGRVLGVDRKLTELIAAGTSICGASAIIATNTVTRADDEDVAYGVACVTVFGSLAMVSYPLLQSVLNLDAHGFGLWTGASIHEIAQAVAVSFQGGQRAGEFGTIAKLSRVMMLAPLVIGLGMLARVRAKHQPAGDHTATPPMPWFVLGFVAMIGVNEFVAIPHEAKSWIVAITAFLLSMALAAMGLETDLRKLAARGLRPALLGLTASLFIAGFSLALIKLTGWHG”, the protein production was “failed”.

For “MTPTPSFAAYVGAHWAAVVIYVIATVVNVYGLLFRSEPAERWSYRLISVGWMIHSVVIAYWWWVTGHGPYLSRNEVLSSDAWIALTVFMCFQRLYPRVRPASIVVFPSVFLMIALGLFFDVQIRTLPPTFSGIWLVIHIAFYKIALGTILIALACSIFLVLKKRTPFAWLQRLPDLESLDLHAYRFAGFGFIIWAIAMLAGSIWAYKSWGRFWGWDPVENWSLITWILFGIHLHLRRFFRWSGERAALFYVVCFIFSLVALFYTSHMDTSIHMEYFR”, the protein production was “failed”.

In the case of “MIAMILVHPHIFWLSLGGLLLAAEMLGGNGYLLWSGVAAVITGLTVWLLPLGWEWQGVLFAALTLLAAWLWWRWLARRVREQKPTDSRLNQRGQQLVGRRFMLDAALVNGRGHMRVGDSSWPVCADEDLRAGTHVEVIAVEGITLRIRAV”, the protein production was “failed”.

For “MIGLVPSPIELSYISDISVPKAASAPAYYDLRALNRLTSVKDQGTAGTCWAFASYSSLESYLKPGEDWDFSENNMKNLLSSAYQEGFDRDPNDGGNRIQAAAYLARWSGPVKESDDPYSTFSGVSPADLPIKKHVQDVIFIPDRADPLDNEAIKWAVQNYGAVYTTMHYNNTFYSPEYYSYYFNGTSEPNHAVAIVGWDDSYDRNNFSKVPPGNGAFIMKNSWGPEWGDKGYFYVSYYDSKAGNGSSVFTAENPENYEYIYQYDPFGWVSSMGYSKPLAWVSNVFTAKSDEVLKAVSFYTTDSNCNYEIYIYTDPVSGPINPAGPVLSKNGTCLTAGYHTIPLDSEVRLIAGQKFSVVIKLTNPSYRYLIPLEKPKDSWSSKARANTGESFISSSGSTWTDVNTSYANSNVCIKAFTNSVLLPIANFSSNITEGYAPLSVQFRDLSGHSTDRTWDFENDGNIDSVEANPIHLFSAPGSLEHHHHHH”, the protein production was “failed”.

With “MNFDSYIFDFDGTLIDTTTCHVKATQSAFKRLNLDEPTEQAILHTYHLNLYNNFKALASHELSFYQIEKLIDEYNHCFSNDEIHQSKEYTGISEVLKFLHNQKKKIFVVSNKETLTTQKYLDYLGLSRFITDSLGVCIKNEDKLLCETIQNLIQKHHLMIGKTVYIGDTAQDIKSANQAHVQTCAVTWGAQSAHELLHEDPHYVVNDPEEFLTIL” the protein production was “failed”.

In the case of “MPAQQAEQAANLGLAGFQFLAQGVFAALLLQLHAFEFGARLTADLPLALLVGMLGAEGLFGLARAVFAHPLGGRLGLAARLGPGFAGFHERLYLRNVTQSE”, the protein production was “failed”.

With “MFNKVIMVGRLTRNVELKYLPSGSAAATIGLATSRRFKKQDGTLGEEVCFIDARLFGRTAEIANQYLSKGSSVLIEGRLTYESWMDQTGKKNSRHTITADSLQFMDKKSDNPQANAMQDSIMHENSNNAYPANHNAPSQDPFNQAYAQNAYAKENLQAQPSKYQNSVPEINIDEEEIPF” the protein production was “failed”.

With “MYIVNSYTLAIIFCFITMICWGSWGNTQKLASKNWRYELYYWDYTIGILLFALLLVFTLGSFGDSGRGFLEDIQQVEAAYIASALIGGAIFNASNILLSASVSIAGMAVAFPLGVGLALVLGVFINYFSSPKGDPFWLFTGVVLIVIAIICNGIAAGKNQKAGTNNSKKGIILAAIAGILMSFFYRFVAAAMDLNNFESPTTGMATPYTAFFIFAIGIFLSNFLFNTLVMKRPFVGLPVTYKEYFAGKASTHMVGILGGCIWGLGTALSYIAAGKAGAAISYALGQGAPMIAALWGVFIWKEFTGSSKATNRLLGVMFILFILGLTFIVISGGS” the protein production was “failed”.

For “GLTNFTRDAEVLYQCAWIHDVMGLETEAMPYYEQAIANGLEGESLCGAYIGLGSTYRCIGEYDKAITVLETGLQQFPGNDVMKVFLSLAKFNVNDHESAMKLLLETVVK”, the protein production was “failed”.

For “MEKLGAVLFDDPNLSMNRTMACSTCHMQAAGFSDARESEKVGRDVSLGDDGISLGDRNAPTAAYAKFTPPFGKNAAGEYIGGQFWDGRASLLEDQAGGPPLNPVEMGMPDKAAVVKRLRENPDYVAAFGTQFGKDVFASDESAYAAMTKALASFERSDEFSTFDSKYDRFLRGEEKLTDQEELGRVLISSTQFTNCNTCHEIRGAKGLEDGLFTNHKYFNIGVPANTSVRAVNGSKPDAVDLGLAQNPAVAGDPAQRGKFKVPTLRNVAVTGPYMHNGVFKDLRTVVLFYVKYKSKKPSRQINPETGKTWDAPEVPENIAMTELTSAPALDDKRVDAIVAFLKTLTDRRYEHLLPKEDGQTAAPTAQPVLSVTPKAP”, the protein production was “failed”.

In the case of “MSYGLIIVLMIILGIGLWHTKKYHRAVVNQVAHVWITKNAFEHTALGMAIVSPDCRFLKVNRAYGEITGYTRPELLKMAVKELTHPEDQEKDTPYLQEVFAGNIHSFTTVKRYIHKNGSTIWVRSTISAVRTERGNLKYFVLEHHHHHH”, the protein production was “failed”.

For “MIRISIALLDHQEQLPNMFENLSEDLRKALNEAGYIKPTRVQEVVIPELMNGKSVIVQAKTGSGKTAAYVIPILERNSTALILSPTRELATQILDEIKKLGKYKQIDVSLIIGGMSYDDQRQSKIVVGTPGRLLDLWSKGKIDFSGYDFVIVDEADRMLDMGFIDDIRMILNHCNAKIAGFFSATIPDEIMTLAKEFSKDLREIVLDEYKPVEEVKQKFVKVRNDWNDKVSKLLEEINGEKILVFARTRDRARKLYYLLKGKGVNVGLLSGDMPQSVRLKNFYGFKKGKYNVLVATDLASRGIDIIDVNKVINFDIPRDVETYIHRVGRTGRMGRVGQAITFYTFREADMIKRINNLLAI”, the protein production was “failed”.

In the case of “MVDKGVVNNVDECVEGTDHCHIDAICQNTPRSYKCICKSGYTGDGKHCKDVDECEREDNAGCVHDCVNIPGNYRCTCYDGFHLAHDGHNCLDVDECAEGNGGCQQSCVNMMGSYECHCRDGFFLSDNQHTCIQRPEEGMNCMNKNHGCAHICRETPKGGIACECRPGFELTKNQRDCKLTCNYGNGGCQHTCDDTEQGPRCGCHVKFVLHTDGKTCIETCAVNNGGCDSKCHDAATGVHCSCPVGFMLQPDRKTCKDIDECRLHNGGCDHICRNTVGSFECSCKKGYKLLINERSCQDIDECSFDRTCDHMCVNTPGSFQCLCHRGYLLYGISHCGDVDECSINKGGCRFGCINTPGSYQCTCPAGQGRLHWNGKDCTEPVKCQSSSGASKAMLSCSRSGKKDTCALTCPSRARFLPESENGFTVSCGTPSPKAAAGRAIHPGNSTISNSCHEAAVLPVKQRASFKIKDAKCRLHLRNKGKAEEASGRTPGPGGASCSDCQVTFIHLKCDSSRKGKGRRARTPPGKEVTRLTLELEAEVRAEETTAGCGLTCLRQRMERRLKGSLKMLRKSINQDRFLLRLAGLDYELAHKPGLAAGDRAELVEVCRPGQHRAGTKCVSCPQGTYYHGQTEQCVPCPAGTFQEREGQLSCDLCPGSDAHGPLGATNVTTCAGQCPPGQHSGDGFKPCQPCPRGTYQPEAGRTLCFPCGGGLTTKHEGAVSFQDCDTKVQCSPGHYYNTSIHRCIRCAVGSYQPDFRQNFCTRCPGNTSADFDGSTSVAQCKNRQCGGELGEFTGYIESPNYPGNYPAGVECIWNINPPPKRKILIVVPEIFLPSEDECGDVLVMRKNSSPSSITTYETCQTYERPIAFTARSRKLWINFKTSEANSARGFQIPYVTYDEDYEQLVEDIVRDGRLYASENHQEILKDKKLIKAFFEVLAHPQNYFKYTEKHKEMLPKSFIKLLRSKVSSFLRPYK”, the protein production was “failed”.

For “HFLLPFAEIPEQFPASKAVLMEHFYRRMRKRFGYLMTADGKPEGGQWNFDADNRNKLKSPDLLQLPTPLCFDNPVASIKARIERHRIPSIGQVGESLLWPINRAQALSLLAHFCQICLPNFGRFQDAMTAQHPHRWSLYHSRLSFALNSKLLSPREVIEATISAYRAAQGQISLAQVEGFVRQILGWREYVRGMYWSN”, the protein production was “failed”.

In the case of “MTTPPARTAKQRIQDTLNRLELDVDAWVSTAGADGGAPYLVPLSYLWDGETFLVATPAASPTGRNLSETGRVRLGIGPTRDLVLVEGTALPLEPAGLPDGVGDTFAEKTGFDPRRLTTSYLYFRISPRRVQAWREANELSGRELMRDGEWLVTD”, the protein production was “not failed”.

With “IDIEAMLGSVFDAMEPELDFTGEARNMDEARGQVRSFRSLEVPRVLHASPRVLVQSLADGKSVRHVDRAHFTDDERVEIGKDLLRFMYHGYFVHRFFHADPHAGNVFAAPGGPATLIDWGMVGRLD” the protein production was “failed”.

In the case of “MNSKTHLLLALTMLIWAGSFIFIKIGLKELDPFNLAFYRFLLASPLLMAWVFWKRGLAKPSGSEWLHLSVLALSGVTLLYAFQFLALKYTTATNASILINTSAVFVALWGLVKGEANPRKLAGVFLSFAGVVLIVSKGTLEFFSSKTIFGDVLMIVDGFLWAVYTVLGSKMLLKYDHETLTAYAFALGTIFLIPFALMSGFANPVTFNPETVAALLYLSILCSVFAYVVWYYALTNADSTSVAVYVYLVPLFTAIFAFYALNEKPDFFTAIGGIITIAGVYLTTAKQHQ”, the protein production was “failed”.

With “HPLLAGIPFRQLARPLMQDLAYSVRGTVSIGLLDGPSVVYVETARSGDVGPHTPDIGMPIPVVRTAMGRAAASTLPEAEAERLDRQLEAADGAMWASHRDLYRDGLRQCAERQFCTCFGDYLPAIHAVAAPLFRQRDRSFAINCGIPAFRLQPGQLEDEIGPRVRALAESIRALGVDPE” the protein production was “failed”.

For “MTILSAALLLFLILDPLGNIPVFLSVLKPLPPKRQRFVLARELLIALCVLMAFLWGGKYALELMHLRQESVAIAGGIVLFVIGIRMIFPRPEGLMGEIPDGEPFIVPLAIPLVAGPSGMAAVMLMGSNEPTRLWDWSLALMIAWIGASSILAAAPLLYKLLGHRALTAIERLMGMLLVAISVQMFLDGLGTYFKLPVSI”, the protein production was “failed”.

In the case of “MIQCILVMLGGGIGAVIRGFVTDVFNQKFNTSLPIPTLLINVVGSFCIGLLMGMCLNINWINPFIIVGILGGLTTFSTLSSELVKLLTTPKQINLFILYSILQYGVSFVACLLGYYLF”, the protein production was “failed”.
